Data reported in the supplement of paper PMC10126150.
± gives the standard deviation of the averaged measurements.

System: ATP
Assay: switch fluorescence ratio, 500 uM ATP over buffer (Cy3 cluster intensity, sum of 5 cycles each) (fold (ratio)); higher = stronger signal-on switching upon ATP binding; sequences stand for … in TCGTCGGCAGCGTCAGATGTGTATAAGAGACAGTTTTTTTTTTTTTTTTTTTTTTTTT…TC
Details: aptamer strand: ATP DNA aptamer (quencher-CACCTGGGGGAGTATTGCGGAGGAAGG + anchor), 100 nM annealed; ATP concentration: 500 uM
In short: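 Between each of five buffer/ATP cycles, the flow-cell was stripped with NaOH and re-annealed. Each cycle imaged Cy3-labelled switching-strand clusters, annealed to 100 nM quencher-labelled ATP aptamer on a modified Illumina MiSeq flow-cell, first in selection buffer and then after 15 min with 500 uM ATP at 22 °C. The fluorescence ratio is summed target-cycle over summed buffer-cycle Cy3 intensity per cluster, averaged per switch-domain sequence, with clusters outside 100-1000 RFU excluded.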
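Further: ATP exposure 15 min at 22 °C before imaging.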

Row | Sequence | switch fluorescence ratio
1 | ACCCAAGATT | 1.01 ± 0.017
2 | ACCCAGAAGG | 1.08 ± 0.043
3 | ACCCATCTGT | 0.979 ± 0.013
4 | ACCCATGCGA | 1.13 ± 0.036
5 | ACCCATTGTA | 1.064 ± 0.0071
6 | ACCCCATGCG | 1.22 ± 0.037
7 | ACCCCGGTAA | 1.87 ± 1.2
8 | ACCCGGGGCA | 1.05 ± 0.054
9 | ACCCGTACAT | 1.11 ± 0.022
10 | ACCCGTTTTG | 1.01 ± 0.025
11 | ACCCTGGACA | 1.01 ± 0.019
12 | ACCGAGCAAG | 4.12 ± 0.19
13 | ACCGAGGCAT | 3.81 ± 1.5
14 | ACCGAGGGGG | 1.02 ± 0.041
15 | ACCGCGGGCG | 1.069 ± 0.0053
16 | ACCGCTTACG | 1.56 ± 0.12
17 | ACCGGCGAGG | 1.01 ± 0.036
18 | ACCGGGGCTC | 1.05 ± 0.052
19 | ACCGGGGGAG | 0.984 ± 0.02
20 | ACCGGGGTGT | 1.17 ± 0.14
21 | ACCGGGTTGG | 0.999 ± 0.01
22 | ACCGGTCTAT | 1.031 ± 0.00046
23 | ACCGGTGCTT | 1.04 ± 0.032
24 | ACCGGTTACA | 1.03 ± 0.042
25 | ACCGGTTTTT | 1.04 ± 0.045

Row | Sequence | switch fluorescence ratio
26 | ACCGTAGCTT | 2.61 ± 0.14
27 | ACCGTCAGGT | 1 ± 0.085
28 | ACCTACAAGG | 0.99429 ± 0.00094
29 | ACCTAGCGAT | 1.57 ± 0.03
30 | ACCTCATTTG | 1.067 ± 0.0049
31 | ACCTCGTTTT | 0.9879 ± 0.0062
32 | ACCTGATATA | 1.03 ± 0.021
33 | ACCTGATCGT | 1.087 ± 0.0051
34 | ACCTGATTAT | 1.02 ± 0.02
35 | ACCTGCAATG | 2.43 ± 0.2
36 | ACCTGCATGG | 1.05 ± 0.11
37 | ACCTGCTAAC | 1.59 ± 0.024
38 | ACCTGGACCT | 1.33 ± 0.032
39 | ACCTGGATAC | 1.86 ± 0.019
40 | ACCTGGGCGC | 1.2 ± 0.12
41 | ACCTGTATTT | 1 ± 0.02
42 | ACCTGTGAGT | 0.9909 ± 0.0019
43 | ACCTTCTTTT | 1.11 ± 0.11
44 | ACCTTGAGAG | 1 ± 0.011
45 | ACCTTGGTGT | 1.01 ± 0.053
46 | ACCTTTTTTG | 0.992 ± 0.024
47 | ACGAAAACGC | 1.36 ± 0.23
48 | ACGAAAGTCT | 1.03 ± 0.041
49 | ACGAACGGTA | 1.37 ± 0.032
50 | ACGAAGAGTT | 1.05 ± 0.019

Row | Sequence | switch fluorescence ratio
51 | ACGAATGCGT | 0.975 ± 0.047
52 | ACGACTGGGG | 1.02 ± 0.03
53 | ACGACTTGGT | 1.09 ± 0.11
54 | ACGACTTTGT | 1.02 ± 0.032
55 | ACGAGAGAAA | 0.974 ± 0.017
56 | ACGAGCTGCT | 1.032 ± 0.0038
57 | ACGAGTAGCT | 1.01 ± 0.014
58 | ACGAGTCTGG | 1.08 ± 0.039
59 | ACGAGTGTTG | 1.03 ± 0.037
60 | ACGAGTTCAT | 0.999 ± 0.017
61 | ACGAGTTCCT | 0.989 ± 0.056
62 | ACGATAGGGC | 1.06 ± 0.046
63 | ACGATGTATC | 1.06 ± 0.049
64 | ACGATTGGTG | 1.07 ± 0.056
65 | ACGCAACGCC | 1.6634 ± 0.0003
66 | ACGCCTACGA | 1.15 ± 0.09
67 | ACGCGCGCGC | 0.987 ± 0.036
68 | ACGCGGCAGG | 1.02 ± 0.022
69 | ACGCGGCGGG | 0.977 ± 0.036
70 | ACGCTAATGT | 1.35 ± 0.23
71 | ACGCTAGGGC | 1.16 ± 0.039
72 | ACGCTGGGGA | 0.993 ± 0.016
73 | ACGGAAACGC | 1.1 ± 0.02
74 | ACGGAAGTTA | 1.02 ± 0.025
75 | ACGGACCATT | 1.27 ± 0.014

Row | Sequence | switch fluorescence ratio
76 | ACGGAGACCG | 1.01 ± 0.038
77 | ACGGAGCCTT | 1.32 ± 0.036
78 | ACGGAGGGGT | 1.14 ± 0.13
79 | ACGGAGGGTG | 1.029 ± 0.0088
80 | ACGGATTTGG | 0.9926 ± 0.0095
81 | ACGGCAACAT | 1.31 ± 0.1
82 | ACGGCAAGGA | 1.12 ± 0.028
83 | ACGGCAGTGA | 1.0394 ± 0.00012
84 | ACGGCCGGTC | 0.9773 ± 0.0026
85 | ACGGCGGTGC | 1.034 ± 0.0078
86 | ACGGCTGAGC | 1.04 ± 0.03
87 | ACGGCTGTTA | 1.012 ± 0.0046
88 | ACGGGAAAAG | 1.01 ± 0.035
89 | ACGGGAATTG | 1.04 ± 0.019
90 | ACGGGACGGG | 1.02 ± 0.035
91 | ACGGGCAATG | 1.32 ± 0.16
92 | ACGGGCATTC | 1.76 ± 0.42
93 | ACGGGCGGGG | 1.02 ± 0.021
94 | ACGGGCTAGG | 1.01 ± 0.027
95 | ACGGGGAATG | 1.01 ± 0.056
96 | ACGGGGAGGT | 0.981 ± 0.04
97 | ACGGGGAGTT | 1.05 ± 0.031
98 | ACGGGGCATT | 1 ± 0.043
99 | ACGGGGCTTT | 1.05 ± 0.024
100 | ACGGGGGGAT | 1.04 ± 0.089

Row | Sequence | switch fluorescence ratio
101 | ACGGGGGGGA | 1.03 ± 0.032
102 | ACGGGGGTGT | 0.984 ± 0.024
103 | ACGGGGTTTC | 1.01 ± 0.021
104 | ACGGGTATTA | 0.9907 ± 0.0014
105 | ACGGGTATTG | 1.02 ± 0.034
106 | ACGGGTCCGT | 0.986 ± 0.011
107 | ACGGGTCGGA | 1 ± 0.027
108 | ACGGGTGTAG | 0.989 ± 0.052
109 | ACGGGTTCGC | 0.988 ± 0.022
110 | ACGGTAATTC | 1.184 ± 0.011
111 | ACGGTAGGGT | 1.12 ± 0.06
112 | ACGGTCCAAG | 1.02 ± 0.015
113 | ACGGTGACGT | 1.01 ± 0.028
114 | ACGGTGCATG | 1.018 ± 0.006
115 | ACGGTGTATT | 0.998 ± 0.037
116 | ACGGTTGCGC | 1.01 ± 0.034
117 | ACGGTTTGGC | 0.939 ± 0.063
118 | ACGGTTTTAA | 1 ± 0.03
119 | ACGGTTTTAC | 1.12 ± 0.012
120 | ACGTAAAAAG | 1.01 ± 0.065
121 | ACGTAACATA | 1.22 ± 0.017
122 | ACGTACTACT | 1.3895 ± 0.00013
123 | ACGTACTATT | 1.45 ± 0.23
124 | ACGTAGGTTC | 1.063 ± 0.0048
125 | ACGTAGGTTT | 1.03 ± 0.046

Row | Sequence | switch fluorescence ratio
126 | ACGTATCGGC | 1.056 ± 0.0075
127 | ACGTATTCAT | 1.11 ± 0.013
128 | ACGTATTTTT | 1.12 ± 0.018
129 | ACGTCCCGGG | 1.09 ± 0.015
130 | ACGTCGCATG | 1.09 ± 0.046
131 | ACGTCGGGGG | 1 ± 0.021
132 | ACGTGACAGG | 1.22 ± 0.013
133 | ACGTGATTTG | 1.04 ± 0.025
134 | ACGTGCAACT | 0.981 ± 0.049
135 | ACGTGGGGGA | 1.02 ± 0.051
136 | ACGTGTGGGA | 1.04 ± 0.02
137 | ACGTTAAGTG | 1 ± 0.011
138 | ACGTTAGGGT | 1.04 ± 0.058
139 | ACGTTATTTT | 1.126 ± 0.0061
140 | ACGTTGACAG | 1.05 ± 0.011
141 | ACGTTGCAGC | 1.047 ± 0.006
142 | ACGTTGCGAG | 0.994 ± 0.015
143 | ACGTTGCGTT | 1.02 ± 0.025
144 | ACGTTGCTTA | 1.007 ± 0.0052
145 | ACGTTGGAGA | 1.06 ± 0.0051
146 | ACGTTGGTAA | 1.02 ± 0.032
147 | ACGTTGTACA | 1.06 ± 0.038
148 | ACGTTGTACT | 1.14 ± 0.037
149 | ACGTTTATGT | 1.02 ± 0.02
150 | ACGTTTGGGG | 0.968 ± 0.049

Row | Sequence | switch fluorescence ratio
151 | ACGTTTGTAT | 1 ± 0.031
152 | ACGTTTTGTG | 0.96 ± 0.028
153 | ACTAAAAAAA | 0.991 ± 0.025
154 | ACTAACGGGA | 1.39 ± 0.15
155 | ACTAATAAGT | 0.999 ± 0.028
156 | ACTAATGGGC | 1.03 ± 0.026
157 | ACTAATGTGG | 0.9959 ± 0.0068
158 | ACTACAGACG | 1.11 ± 0.061
159 | ACTACCTTAC | 3.15 ± 0.077
160 | ACTACGGATT | 1.06 ± 0.026
161 | ACTACGTGGG | 1.0708 ± 0.00037
162 | ACTACGTTAC | 2.88 ± 0.039
163 | ACTAGAAGAT | 0.9829 ± 0.0038
164 | ACTAGAAGGG | 0.9833 ± 0.0037
165 | ACTAGCAGCT | 1.01 ± 0.025
166 | ACTAGCTCTG | 1 ± 0.023
167 | ACTAGGCCGA | 1.01 ± 0.044
168 | ACTAGGCTGG | 1.01 ± 0.028
169 | ACTAGGGGCA | 0.98 ± 0.036
170 | ACTAGGGTCT | 1 ± 0.081
171 | ACTAGGGTTT | 1.018 ± 0.0027
172 | ACTAGTTTTG | 0.976 ± 0.033
173 | ACTATATTTA | 1.034 ± 0.0063
174 | ACTATATTTG | 1.04 ± 0.022
175 | ACTATCCAGG | 2.226 ± 0.0049

Row | Sequence | switch fluorescence ratio
176 | ACTATCGAAA | 1.09 ± 0.03
177 | ACTATGAGCC | 1.01 ± 0.021
178 | ACTATGGGGC | 1.01 ± 0.081
179 | ACTATGTGGT | 0.9971 ± 0.0096
180 | ACTATTATTC | 1.05 ± 0.034
181 | ACTATTTCGA | 1.01 ± 0.03
182 | ACTCACATAG | 1.217 ± 0.0056
183 | ACTCAGACCT | 1.3 ± 0.067
184 | ACTCAGGTCC | 1.077 ± 0.0054
185 | ACTCAGTGTC | 1.05 ± 0.023
186 | ACTCCAATGG | 1.85 ± 0.12
187 | ACTCGATGTG | 0.989 ± 0.045
188 | ACTCGGGGTT | 0.998 ± 0.04
189 | ACTCGGGTAG | 1.028 ± 0.0056
190 | ACTCGGTGTG | 0.992 ± 0.029
191 | ACTCTACTTG | 1.42 ± 0.16
192 | ACTCTGCCGG | 1.2 ± 0.048
193 | ACTCTGTGC | 1.21 ± 0.032
194 | ACTCTTGCTT | 1.072 ± 0.0046
195 | ACTGAAGTTA | 0.98 ± 0.018
196 | ACTGACCCCC | 1.58 ± 0.14
197 | ACTGAGACGA | 1.07 ± 0.044
198 | ACTGAGGATA | 1 ± 0.037
199 | ACTGAGGCTA | 1.07 ± 0.011
200 | ACTGATCTGA | 0.987 ± 0.04
